Results reported in the supplement of paper PMC11246515.
± gives the standard deviation of the averaged measurements.

Test: total protein half-life in vivo (active degradation + dilution); higher = more stable protein
[1] = E. coli NCM3722 delta-clpP delta-lon delta-hslV, growth: N-lim chemostat, doubling time 6 h
[2] = E. coli NCM3722 delta-clpP, growth: N-lim chemostat, doubling time 6 h
[3] = E. coli NCM3722 delta-hslV, growth: N-lim chemostat, doubling time 6 h
[4] = E. coli NCM3722 delta-lon, growth: N-lim chemostat, doubling time 6 h
[5] = E. coli NCM3722 delta-smpB, growth: N-lim chemostat, doubling time 6 h
[6] = wild type E. coli NCM3722, growth: C-lim chemostat, doubling time 3 h
[7] = wild type E. coli NCM3722, growth: C-lim chemostat, doubling time 6 h
[8] = wild type E. coli NCM3722, growth: C-lim chemostat, doubling time 12 h
[9] = wild type E. coli NCM3722, growth: N-lim chemostat, doubling time 6 h
[10] = wild type E. coli NCM3722, growth: N-lim chemostat, doubling time 12 h
[11] = wild type E. coli NCM3722, growth: P-lim chemostat, doubling time 6 h
[12] = wild type E. coli NCM3722, growth: P-lim chemostat, doubling time 12 h

Sequence: MKIKNILLTLCTSLLLTNVAAHAKEVKIGMAIDDLRLERWQKDRDIFVKKAESLGAKVFVQSANGNEETQMSQIENMINRGVDVLVIIPYNGQVLSNVVKEAKQEGIKVLAYDRMINDADIDFYISFDNEKVGELQAKALVDIVPQGNYFLMGGSPVDNNAKLFRAGQMKVLKPYVDSGKIKVVGDQWVDGWLPENALKIMENALTANNNKIDAVVASNDATAGGAIQALSAQGLSGKVAISGQDADLAGIKRIAAGTQTMTVYKPITLLANTAAEIAVELGNGQEPKADTTLNNGLKDVPSRLLTPIDVNKNNIKDTVIKDGFHKESEL
- total protein half-life in vivo [1]: 4.59 ± 0.8 h
- total protein half-life in vivo [2]: 5.33 ± 0.069 h
- total protein half-life in vivo [3]: 5.88 ± 0.42 h
- total protein half-life in vivo [4]: 4.43 h
- total protein half-life in vivo [5]: 6.1 ± 0.13 h
- total protein half-life in vivo [6]: 2.99 ± 0.08 h
- total protein half-life in vivo [7]: 5.41 ± 0.45 h
- total protein half-life in vivo [8]: 8.38 ± 1.2 h
- total protein half-life in vivo [9]: 5.53 ± 0.86 h
- total protein half-life in vivo [10]: 11.2 ± 2.2 h
- total protein half-life in vivo [11]: 5.733 ± 0.025 h
- total protein half-life in vivo [12]: 11.9 ± 0.15 h

Sequence: MKIKSIRKAVLLLALLTSTSFAAGKNVNVEFRKGHSSAQYSGEIKGYDYDTYTFYAKKGQKVHVSISNEGADTYLFGPGIDDSVDLSRYSPELDSHGQYSLPASGKYELRVLQTRNDARKNKTKKYNVDIQIK
- total protein half-life in vivo [1]: 5.26 ± 0.85 h
- total protein half-life in vivo [2]: 6.18 ± 1.5 h
- total protein half-life in vivo [3]: 6.58 ± 0.55 h
- total protein half-life in vivo [4]: 5.92 ± 0.064 h
- total protein half-life in vivo [5]: 5.41 ± 2.6 h
- total protein half-life in vivo [6]: 3.4 ± 0.059 h
- total protein half-life in vivo [7]: 5.32 ± 0.57 h
- total protein half-life in vivo [8]: 9.98 ± 4 h
- total protein half-life in vivo [9]: 6.12 ± 0.28 h
- total protein half-life in vivo [10]: 11 ± 4.1 h
- total protein half-life in vivo [11]: 4.9 ± 0.38 h
- total protein half-life in vivo [12]: 11.1 ± 0.15 h

Sequence: MKIKTRFAPSPTGYLHVGGARTALYSWLFARNHGGEFVLRIEDTDLERSTPEAIEAIMDGMNWLSLEWDEGPYYQTKRFDRYNAVIDQMLEEGTAYKCYCSKERLEALREEQMAKGEKPRYDGRCRHSHEHHADDEPCVVRFANPQEGSVVFDDQIRGPIEFSNQELDDLIIRRTDGSPTYNFCVVVDDWDMEITHVIRGEDHINNTPRQINILKALKAPVPVYAHVSMINGDDGKKLSKRHGAVSVMQYRDDGYLPEALLNYLVRLGWSHGDQEIFTREEMIKYFTLNAVSKSASAFNTDKLLWLNHHYINALPPEYVATHLQWHIEQENIDTRNGPQLADLVKLLGERCKTLKEMAQSCRYFYEDFAEFDADAAKKHLRPVARQPLEVVRDKLAAITDWTAENVHHAIQATADELEVGMGKVGMPLRVAVTGAGQSPALDVTVHAIGKTRSIERINKALDFIAERENQQ
- total protein half-life in vivo [1]: 5.79 ± 0.64 h
- total protein half-life in vivo [2]: 5.2 ± 0.2 h
- total protein half-life in vivo [3]: 5.5 ± 0.56 h
- total protein half-life in vivo [4]: 5.42 ± 0.13 h
- total protein half-life in vivo [5]: 5.06 ± 0.56 h
- total protein half-life in vivo [6]: 3.22 ± 0.47 h
- total protein half-life in vivo [7]: 6.28 ± 0.22 h
- total protein half-life in vivo [8]: 12.5 ± 0.98 h
- total protein half-life in vivo [9]: 5.34 ± 0.34 h
- total protein half-life in vivo [10]: 9.3 ± 0.16 h
- total protein half-life in vivo [11]: 6.23 ± 0.25 h
- total protein half-life in vivo [12]: 12.2 ± 0.93 h

Sequence: MKILLIEDNQRTQEWVTQGLSEAGYVIDAVSDGRDGLYLALKDDYALIILDIMLPGMDGWQILQTLRTAKQTPVICLTARDSVDDRVRGLDSGANDYLVKPFSFSELLARVRAQLRQHHALNSTLEISGLRMDSVSHSVSRDNISITLTRKEFQLLWLLASRAGEIIPRTVIASEIWGINFDSDTNTVDVAIRRLRAKVDDPFPEKLIATIRGMGYSFVAVKK
- total protein half-life in vivo [1]: 5.88 ± 0.19 h
- total protein half-life in vivo [2]: 4.67 ± 0.22 h
- total protein half-life in vivo [3]: 5.28 ± 1 h
- total protein half-life in vivo [4]: 4.77 ± 0.42 h
- total protein half-life in vivo [5]: 4.91 ± 0.52 h
- total protein half-life in vivo [6]: 2.99 ± 0.052 h
- total protein half-life in vivo [8]: 10.4 ± 0.76 h
- total protein half-life in vivo [9]: 4.11 ± 0.2 h
- total protein half-life in vivo [10]: 7.422 ± 0.042 h
- total protein half-life in vivo [11]: 5.64 ± 0.063 h
- total protein half-life in vivo [12]: 11.9 ± 0.75 h

Sequence: MKIRALLVAMSVATVLTGCQNMDSNGLLSSGAEAFQAYSLSDAQVKTLSDQACQEMDSKATIAPANSEYAKRLTTIANALGNNINGQPVNYKVYMAKDVNAFAMANGCIRVYSGLMDMMTDNEVEAVIGHEMGHVALGHVKKGMQVALGTNAVRVAAASAGGIVGSLSQSQLGNLGEKLVNSQFSQRQEAEADDYSYDLLRQRGISPAGLATSFEKLAKLEEGRQSSMFDDHPASAERAQHIRDRMSADGIK
- total protein half-life in vivo [1]: 5.03 ± 0.95 h
- total protein half-life in vivo [2]: 5.9 ± 0.43 h
- total protein half-life in vivo [3]: 5.87 ± 0.4 h
- total protein half-life in vivo [5]: 3.99 ± 0.98 h
- total protein half-life in vivo [6]: 2.69 ± 0.21 h
- total protein half-life in vivo [7]: 5.11 ± 0.41 h
- total protein half-life in vivo [8]: 8.35 ± 1.9 h
- total protein half-life in vivo [9]: 6.22 ± 0.35 h
- total protein half-life in vivo [10]: 10.2 ± 2.9 h
- total protein half-life in vivo [11]: 3.16 ± 0.24 h
- total protein half-life in vivo [12]: 9.05 ± 5.4 h

Sequence: MKISLVVPVFNEEEAIPIFYKTVREFEELKSYEVEIVFINDGSKDATESIINALAVSDPLVVPLSFTRNFGKEPALFAGLDHATGDAIIPIDVDLQDPIEVIPHLIEKWQAGADMVLAKRSDRSTDGRLKRKTAEWFYKLHNKISNPKIEENVGDFRLMSRDVVENIKLMPERNLFMKGILSWVGGKTDIVEYVRAERIAGDTKFNGWKLWNLALEGITSFSTFPLRIWTYIGLVVASVAFIYGAWMILDTIIFGNAVRGYPSLLVSILFLGGIQMIGIGVLGEYIGRTYIETKKRPKYIIKRVKK
- total protein half-life in vivo [1]: 6.26 ± 0.44 h
- total protein half-life in vivo [2]: 6.88 ± 1.2 h
- total protein half-life in vivo [3]: 7.42 ± 0.82 h
- total protein half-life in vivo [5]: 6.23 ± 0.34 h
- total protein half-life in vivo [6]: 3.54 ± 0.22 h
- total protein half-life in vivo [7]: 6.05 ± 0.38 h
- total protein half-life in vivo [9]: 6.19 ± 0.16 h
- total protein half-life in vivo [11]: 6.08 ± 0.13 h
- total protein half-life in vivo [12]: 13.7 ± 0.2 h

Sequence: MKISRETLHQLIENKLCQAGLKREHAATVAEVLVYADARGIHSHGAVRVEYYAERISKGGTNREPEFRLEETGPCSAILHADNAAGQVAAKMGMEHAIKTAQQNGVAVVGISRMGHSGAISYFVQQAARAGFIGISMCQSDPMVVPFGGAEIYYGTNPLAFAAPGEGDEILTFDMATTVQAWGKVLDARSRNMSIPDTWAVDKNGVPTTDPFAVHALLPAAGPKGYGLMMMIDVLSGVLLGLPFGRQVSSMYDDLHAGRNLGQLHIVINPNFFSSSELFRQHLSQTMRELNAITPAPGFNQVYYPGQDQDIKQRKAAVEGIEIVDDIYQYLISDALYNTSYETKNPFAQ
- total protein half-life in vivo [6]: 2.88 h
- total protein half-life in vivo [7]: 5.52 ± 0.59 h
- total protein half-life in vivo [12]: > 16 h
